B1: wt BDNF: recombinant wild-type brain-derived neurotrophic factor (SEQ ID NO. 2) produced in COS cells (protein)
chain: HSDPARRGELSVCDSISEWVTAADKKTAVDMSGGTVTVLEKVPVSKGQLKQYFYETKCNPMGYTKEGCRGIDKRHWSNQCRTTQSYVRALTMDSKKRIGWRFIRIDTSCVCTLTIKRGR
B2: wt NGF: recombinant wild-type rat nerve growth factor (SEQ ID NO. 1) produced in COS cells (protein)
chain: SSTHPVFHMGEFSVCDSVSVWVGDKTTATDIKGKEVTVLGEVNINNSVFKQYFFETKCRAPNPVESGCRGIDSKHWSNYCTTTHTFVKALTTDDKQAAWRFIRIDTACVCVLSRKAARRG
B3: PNT-1: NT-3 with variable region V replaced from BDNF and amino terminus (residues 3-9) replaced from NGF (protein)
chain: B2 chain

How the values were obtained:
[1] = system: E8 chick sympathetic ganglia; assay: Neurite outgrowth from explanted E8 chick sympathetic ganglia; format: cell-based; settings: for Biological Activity % of wild type (neurite outgrowth, sympathetic ganglia): explants of embryonic sympathetic ganglia, relative to wt NGF
Method: Fibre outgrowth was scored on a semiquantitative scale in biological units (BU) by comparison to standards obtained with purified mouse NGF, for which 1 BU is equivalent to approximately 5ng/ml. The concentration of each protein that gave 0.6 BU in this scale was determined, and used to calculate the relative activity compared to that obtained with wt NGF.

TrkB and TrkA = settings: literature; cited from earlier work
TrkA [2] = assay: Competitive TrkA receptor binding: displacement of 125I-NGF from rtrkA-3T3 cells; settings: 125I-NGF displacement, relative binding from IC50 versus wt NGF
Method: NIH3T3 fibroblasts expressing TrkA, TrkB or TrkC were used at 2 to 1-33 10^6 cells/ml. […] All components were added at the same time and the cells were collected by centrifugation after equilibrium was reached (90-120 minutes incubation). Cell pellets were then counted in a gamma counter. […] Nonspecific binding was measured in a parallel incubation to which 300 to 1000-fold molar excess of unlabelled purified factor was added.

[3] = system: dissociated E8 chick nodose neurons; assay: Survival of dissociated E8 chick nodose ganglion neurons; format: cell-based; settings: for Nodose neurons rescued (survival): saturating concentrations (20-50 ng/ml)
Method: (§1) Dissociated neurons from chick E8 sympathetic and nodose ganglia were preplated on plastic for 2 hr and then cultured in 96 well-plates coated with poly-L-ornithine and laminin at a density of 800-1000 cells/well. Serial dilutions of conditioned media containing equivalent amounts of recombinant proteins were added at the time of plating and neuronal survival was determined after 36-48 hr by phase contrast microscopy, scoring the number of surviving neurons in the entire well.

[4] = system: dissociated E8 chick sympathetic neurons; assay: Survival of dissociated E8 chick sympathetic neurons; format: cell-based; settings: 2 ng/ml
Method: as §1

TrkB [5] = assay: Competitive TrkB receptor binding: displacement of 125I-BDNF from rtrkB-3T3 cells; settings: for Receptor Binding % of wild type (TrkB): rtrkB-3T3 cells, 125I-BDNF displacement, relative binding from IC50 versus wt BDNF
Method: Purified mouse NGF and BDNF were labeled with ^125 I by the lactoperoxidase method to an average specific activity of 1×10^8cpm/μg. For the labeling of BDNF, the modifications described by Rodriguez-Tebar et al. ([Rodriguez-Tebar, 1992]) were used. NIH3T3 fibroblasts expressing TrkA, TrkB or TrkC were used at 2 to 1-33 10^6 cells/ml. Steady state binding was measured in competition assays performed at 4° C. using 1.5×10^-9 M ^125 I-BDNF and serial dilutions of conditioned media containing equivalent amounts of wt or mutated NGF protein. All components were added at the same time and the cells were collected by centrifugation after equilibrium was reached (90-120 minutes incubation). Cell pellets were then counted in a gamma counter. […] Nonspecific binding was measured in a parallel incubation to which 300 to 1000-fold molar excess of unlabelled purified factor was added. All results were corrected for this nonspecific binding, which was less than 10% (for NGF) or 30% (for BDNF) of total binding. The concentration of each chimeric, mutant and wild type molecule that gave 50% binding (IC50) was determined, and relative binding was calculated using the relationship:(mutant IC50 /wild type IC50)×100.

TrkB [6] = assay: Tyrosine phosphorylation of TrkB receptors in rtrkB-3T3 cells; format: cell-based
Method: (§2) Plates were incubated 15 minutes at 4° C. after which insoluble material was removed by centrifugation. Cell lysates were normalized for protein content before immunoprecipitation. […] After 2 hr at 4° C., immunocomplexes were collected with Protein A-Sepharose (Pharmacia, Sweden), washed in lysis buffer and boiled for 5 minutes before SDS/PAGE. After electrophoresis, gels were blotted to nitrocellulose membranes, reacted with anti-phosphotyrosine monoclonal antibody 4G10 (UBI, New York) and developed with the ECL Western Detection System (Amersham, UK). Appropriately exposed autoradiograms of phosphotyrosine blots were used for densitometric scanning.

TrkC = assay: Tyrosine phosphorylation of TrkC receptors in Trk-expressing cells; format: cell-based; settings: 100 ng/ml
Method: A confluent 10 cm plate containing about 10^7 rtrk-3T3 or rtrkB-3T3 cells was treated for 5 minutes at 37° C. with wt, chimeric or mutant factors and subsequently lysed with 1 ml of ice-cold buffer containing 1% NP40, 20 mM Tris pH 8.0, 137 mM NaCl, 2 mM EDTA, 10% glycerol, 1 mM PMSF, 0.15 U/ml aprotinin, 20 μM leupeptine and 1 mM Na orthovanadate. Plates were incubated 15 minutes at 4° C. after which insoluble material was removed by centrifugation. Cell lysates were normalized for protein content before immunoprecipitation. Trk immunoprecipitation was performed by incubating lysates with 1 μl of anti-TrkB polyclonal antiserum 443 ([Soppet, 1991]) which recognizes TrkA, TrkB and TrkC. After 2 hr at 4° C., immunocomplexes were collected with Protein A-Sepharose (Pharmacia, Sweden), washed in lysis buffer and boiled for 5 minutes before SDS/PAGE. After electrophoresis, gels were blotted to nitrocellulose membranes, reacted with anti-phosphotyrosine monoclonal antibody 4G10 (UBI, New York) and developed with the ECL Western Detection System (Amersham, UK). Appropriately exposed autoradiograms of phosphotyrosine blots were used for densitometric scanning.

TrkA [7] = assay: Tyrosine phosphorylation of TrkA receptors in rtrkA-3T3 cells; format: cell-based; settings: 100 ng/ml
Method: as §2

| Molecule | Biological activity, neurite outgrowth from sympathetic ganglia (in words) [1] | Efficiency to mediate biological effects through TrkB and TrkA lower than BDNF or NGF (TrkB and TrkA) | Receptor Binding % of wild type (TrkA) (TrkA [2]) | Nodose neurons rescued (survival) [3] | Survival of dissociated sympathetic neurons (in words) [4] | Receptor Binding % of wild type (TrkB) (TrkB [5]) | Biological Activity % of wild type (neurite outgrowth, sympathetic ganglia) [1] | EC50 of TrkB receptor phosphorylation (TrkB [6]; dose-response, densitometric scanning of phosphotyrosine blots, rtrkB-3T3 cells) | Survival of nodose neurons (in words) [3] | TrkC tyrosine phosphorylation (in words) (TrkC) | TrkB receptor binding (in words) (TrkB [5]) | Potency in neurite outgrowth from sympathetic ganglia lower than wild type NGF ([1]; dose-response curves) | TrkA tyrosine phosphorylation / activation (in words) (TrkA [7]) | TrkB tyrosine phosphorylation / activation (in words) (TrkB [6]; 100 ng/ml) | Increase of nodose neuron survival compared to NT-3 ([3]; saturating concentrations) |
| --- | --- | --- | --- | --- | --- | --- | --- | --- | --- | --- | --- | --- | --- | --- | --- |
| wild-type NT-3: recombinant wild-type rat neurotrophin-3 (SEQ ID NO. 3) produced in COS cells [reference compound] | only a marginal effect | about 100 fold | about 3 % of wild type | 25% | no survival | – | – | – | – | – | – | – | – | – | – |
| B1 | – | – | < 0,2 % of wild type | 40% | – | 100 % of wild type | < 0,2 % of wild type | 5 ng/mL | – | – | – | – | – | – | – |
| B2 | – | – | 100 % of wild type | – | – | < 0,2 % of wild type | 100 % of wild type | – | failed to rescue neurons | – | – | – | – | – | – |
| B3 | efficiently stimulated neurite outgrowth | – | ~50 % of wild type | 45% | correlated with survival of dissociated sympathetic neurons | – | – | – | – | efficient tyrosine phosphorylation | not changed | 15 fold | efficient tyrosine phosphorylation | efficient tyrosine phosphorylation | ~2 fold |

Source: patent US5889173A, “DNA encoding multifunctional neurothrophic factors” (priority 1996, dated 1999)
